The results in this text go back to patent US20110288005A1.

The target in the assay is bovine pancreatic trypsin (Sigma T1426) (bovine) (UniProt P00760). Briefly: cell-based or functional assay.
Sequence of bovine pancreatic trypsin (Sigma T1426) (bovine) (P00760 24-246): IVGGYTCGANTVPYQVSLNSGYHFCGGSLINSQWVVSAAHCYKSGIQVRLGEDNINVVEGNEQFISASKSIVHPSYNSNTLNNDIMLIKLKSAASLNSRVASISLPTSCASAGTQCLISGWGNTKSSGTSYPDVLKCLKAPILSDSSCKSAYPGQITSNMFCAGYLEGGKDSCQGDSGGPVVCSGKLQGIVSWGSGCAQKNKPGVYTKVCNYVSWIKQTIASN

aaT-XTEN_AE576 showed a % Activity (compared to positive control plasma-derived aaT) of 106% and an IC50 (µM), equilibrium trypsin inhibition assay of 0.5 µM.
aaT-XTEN_AE288: the % Activity (compared to positive control plasma-derived aaT) came out at 65% and the IC50 (µM), equilibrium trypsin inhibition assay is 0.82 µM.
